Experiments:
[1] = molecular target: zonula occludens 1 (rat alveolar epithelial cells) (rat); test: STORM co-localization, untransduced rat AECs
[2] = molecular target: zonula occludens 1 (rat alveolar epithelial cells) (rat); test: STORM co-localization, rat AECs without YFP-claudin-5
[3] = molecular target: zonula occludens 1 (rat alveolar epithelial cells) (rat); test: STORM co-localization, rat AECs transduced with YFP-claudin-5
[4] = molecular target: T1, zonula occludens 1 (rat alveolar epithelial cells) (rat, UniProt A0A0G2K2P5 1-1765); test: STORM co-localization in rat AECs (FIG. 4C)
T1 construct: Endogenous cytoplasmic protein within primary rat AECs (not a surface protein); also called ZO-1
T1 sequence (A0A0G2K2P5 whole entry): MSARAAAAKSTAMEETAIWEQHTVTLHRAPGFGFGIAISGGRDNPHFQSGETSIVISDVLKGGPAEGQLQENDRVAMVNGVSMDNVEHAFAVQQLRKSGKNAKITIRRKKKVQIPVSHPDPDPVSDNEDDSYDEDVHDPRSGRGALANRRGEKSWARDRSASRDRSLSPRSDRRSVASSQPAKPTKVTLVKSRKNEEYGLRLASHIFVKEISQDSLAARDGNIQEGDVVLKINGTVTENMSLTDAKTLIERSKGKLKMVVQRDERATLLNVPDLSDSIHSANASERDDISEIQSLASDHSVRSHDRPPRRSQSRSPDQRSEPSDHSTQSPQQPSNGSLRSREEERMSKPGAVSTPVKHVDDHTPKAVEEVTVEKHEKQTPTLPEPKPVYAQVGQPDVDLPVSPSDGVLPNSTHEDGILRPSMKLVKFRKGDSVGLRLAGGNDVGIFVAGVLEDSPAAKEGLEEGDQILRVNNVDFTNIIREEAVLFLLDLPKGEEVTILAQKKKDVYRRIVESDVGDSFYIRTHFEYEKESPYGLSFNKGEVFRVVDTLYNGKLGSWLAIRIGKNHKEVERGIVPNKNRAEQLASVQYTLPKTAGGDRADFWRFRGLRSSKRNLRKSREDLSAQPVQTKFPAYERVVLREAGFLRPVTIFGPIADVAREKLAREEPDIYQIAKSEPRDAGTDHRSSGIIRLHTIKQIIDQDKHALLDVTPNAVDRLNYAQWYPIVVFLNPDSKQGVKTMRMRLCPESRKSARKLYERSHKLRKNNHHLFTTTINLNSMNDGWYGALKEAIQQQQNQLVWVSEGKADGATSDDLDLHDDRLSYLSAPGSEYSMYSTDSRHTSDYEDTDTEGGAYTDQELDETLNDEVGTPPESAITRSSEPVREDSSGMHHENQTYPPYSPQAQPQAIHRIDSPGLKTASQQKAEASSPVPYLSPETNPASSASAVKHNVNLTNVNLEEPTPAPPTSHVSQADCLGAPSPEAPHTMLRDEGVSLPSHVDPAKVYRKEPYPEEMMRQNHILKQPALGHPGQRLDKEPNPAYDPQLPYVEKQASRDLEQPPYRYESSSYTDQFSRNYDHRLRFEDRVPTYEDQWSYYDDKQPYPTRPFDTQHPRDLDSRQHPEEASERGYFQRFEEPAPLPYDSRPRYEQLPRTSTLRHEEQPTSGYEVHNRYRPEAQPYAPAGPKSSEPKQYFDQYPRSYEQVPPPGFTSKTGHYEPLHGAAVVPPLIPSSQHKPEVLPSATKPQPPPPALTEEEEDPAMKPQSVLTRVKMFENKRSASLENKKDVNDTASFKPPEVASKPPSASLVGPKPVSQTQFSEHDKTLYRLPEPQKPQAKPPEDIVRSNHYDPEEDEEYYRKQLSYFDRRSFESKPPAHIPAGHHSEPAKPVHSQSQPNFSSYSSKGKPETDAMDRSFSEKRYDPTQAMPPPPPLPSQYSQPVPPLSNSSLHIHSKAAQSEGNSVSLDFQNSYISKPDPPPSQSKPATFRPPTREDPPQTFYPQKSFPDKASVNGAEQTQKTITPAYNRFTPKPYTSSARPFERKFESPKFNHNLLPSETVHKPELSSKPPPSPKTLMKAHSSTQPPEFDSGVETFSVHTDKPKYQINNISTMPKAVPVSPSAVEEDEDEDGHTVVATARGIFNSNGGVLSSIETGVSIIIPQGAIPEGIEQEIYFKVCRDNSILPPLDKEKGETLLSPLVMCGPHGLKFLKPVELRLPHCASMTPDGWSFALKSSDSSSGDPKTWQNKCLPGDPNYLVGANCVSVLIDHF

zonula occludens 1 (rat alveolar epithelial cells) (rat), sequence (A0A0G2 entry or part of it limits assumed): as the sequence (A0A0G2K2P5 whole entry) above

co-localization index [1] [%]	co-localization [2] [%]	co-localization [3] [%]	binding result [4]	Molecule
30.5	31	16		native claudin-18 (rat alveolar epithelial cells) (from UniProt Q5I0E5 1-261)
			binds	native claudin-5 (rat alveolar epithelial cells) (other, UniProt Q9JKD6 1-218, looked up, whole, on cells; Endogenous protein in primary rat AECs from control-fed or alcohol-fed rats; detected with antibodies (co-immunopurification, STORM, PLA); also called Cldn-5) MGSAALEILGLVLCLVGWVGLILACGLPMWQVTAFLDHNIVTAQTTWKGLWMSCVVQSTGHMQCKVYESVLALSAEVQAARALTVGAVLLALVALFVTLTGAQCTTCVAPGPVKARVALTGGALYALCGLLALVPLCWFANIVVREFYDPTVPVSQKYELGAALYIGWAASALLMCGGGLVCCGAWVCTGRPEFSFPVKYSAPRRTTANGDYDKKNYV

Reference: US20200331965A1 (EMORY UNIVERSITY, published 2020)
